Results from PMC4339652 (2015).

Molecular target: T1, G3p N1 (Filamentous phage, UniProt O80297)
T1 chain: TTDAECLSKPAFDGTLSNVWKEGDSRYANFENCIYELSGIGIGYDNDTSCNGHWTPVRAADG
Experiment: SPR

B1: TolA TolAIII (protein)
chain: GGGAKGNNASPAGSGNTKNNGASGADINNYAGQIKSAIESKFYDASSYAGKTCTLRIKLAPDGMLLDIKPEGGDPALCQAALAAAKLAKIPKPPSQAVYEVFKNAPLDFKP
  Kd: 14.9 µM
